In patent US20050182242A1, “Global analysis of protein activities using proteome chips” (priority 2001, published 2005):

B1: SNF1: yeast protein kinase, regulator of glucose metabolism, GST-HisX6 fusion (protein, UniProt P06782 1-633, looked up)
Carbon …: MSSNNNTNTAPANANSSHHHHHHHHHHHHHGHGGSNSTLNNPKSSLADGAHIGNYQIVKTLGEGSFGKVKLAYHTTTGQKVALKIINKKVLAKSDMQGRIEREISYLRLLRHPHIIKLYDVIKSKDEIIMVIEYAGNELFDYIVQRDKMSEQEARRFFQQIISAVEYCHRHKIVHRDLKPENLLLDEHLNVKIADFGLSNIMTDGNFLKTSCGSPNYAAPEVISGKLYAGPEVDVWSCGVILYVMLCRRLPFDDESIPVLFKNISNGVYTLPKFLSPGAAGLIKRMLIVNPLNRISIHEIMQDDWFKVDLPEYLLPPDLKPHPEEENENNDSKKDGSSPDNDEIDDNLVNILSSTMGYEKDEIYESLESSEDTPAFNEIRDAYMLIKENKSLIKDMKANKSVSDELDTFLSQSPPTFQQQSKSHQKSQVDHETAKQHARRMASAITQQRTYHQSPFMDQYKEEDSTVSILPTSLPQIHRANMLAQGSPAASKISPLVTKKSKTRWHFGIRSRSYPLDVMGEIYIALKNLGAEWAKPSEEDLWTIKLRWKYDIGNKTNTNEKIPDLMKMVIQLFQIETNNYLVDFKFDGWESSYGDDTTVSNISEDEMSTFSAYPFLHLTTKLIMELAVNSQSN
B2: Cmk2p: yeast calcium/calmodulin-dependent serine/threonine protein kinase (protein, UniProt P22517 1-447, looked up)
Calcium/calmodulin-dependent …: MPKESEVINSEFHVDVQDPERLNGHPVAKFINKLSGQPESYVNRTNYIFGRTLGAGSFGVVRQARKLSTNEDVAIKILLKKALQGNNVQLQMLYEELSILQKLSHPNIVSFKDWFESKDKFYIVTQLATGGELFDRILSRGKFTEVDAVEIIVQILGAVEYMHSKNVVHRDLKPENVLYVDKSENSPLVIADFGIAKQLKGEEDLIYKAAGSLGYVAPEVLTQDGHGKPCDIWSIGVITYTLLCGYSPFIAESVEGFMEECTASRYPVTFHMPYWDNISIDVKRFILKALRLNPADRPTATELLDDPWITSKRVETSNILPDVKKGFSLRKKLRDAIEIVKLNNRIKRLRNMYSLGDDGDNDIEENSLNESLLDGVTHSLDDLRLQSQKKGGELTEEQMKLKSALTKDAFVQIVKAATKNKHKVLAGEEEDDSKKTLHDDRESKSED
B3: PYK1: yeast pyruvate kinase, GST-HisX6 fusion (protein, UniProt P00549 2-500, looked up)
Pyruvate kinase 1: SRLERLTSLNVVAGSDLRRTSIIGTIGPKTNNPETLVALRKAGLNIVRMNFSHGSYEYHKSVIDNARKSEELYPGRPLAIALDTKGPEIRTGTTTNDVDYPIPPNHEMIFTTDDKYAKACDDKIMYVDYKNITKVISAGRIIYVDDGVLSFQVLEVVDDKTLKVKALNAGKICSHKGVNLPGTDVDLPALSEKDKEDLRFGVKNGVHMVFASFIRTANDVLTIREVLGEQGKDVKIIVKIENQQGVNNFDEILKVTDGVMVARGDLGIEIPAPEVLAVQKKLIAKSNLAGKPVICATQMLESMTYNPRPTRAEVSDVGNAILDGADCVMLSGETAKGNYPINAVTTMAETAVIAEQAIAYLPNYDDMRNCTPKPTSTTETVAASAVAAVFEQKAKAIIVLSTSGTTPRLVSKYRPNCPIILVTRCPRAARFSHLYRGVFPFVFEKEPVSDWTDDVEARINFGIEKAKEFGILKKGDTYVSIQGFKAGAGHSNTLQVSTV
modifications: GST-HisX6 tag
notes: yeast pyruvate kinase, GST-HisX6 fusion

Experiments:
[1] = system: phosphatidylcholine (PC) liposomes; assay: Yeast proteome chip probed with PC liposomes; conditions: liposome binding signal on yeast proteome chip, Cy3-streptavidin detection
In short: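 Binding detected by fluorescent streptavidin (Cy3 or Cy5, >30 min in the dark at RT) recognizing biotin-DHPE (1% w/w) in PC liposomes, which carried 5% (w/w) of the named phosphoinositide unless PC-only. Liposomes, made by sonication in TBS, were applied to blocked chips for 1 h at RT, then washed in PBS.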

[2] = system: PI(3,4,5)P3 liposomes; assay: Yeast proteome chip probed with PI(3,4,5)P3 liposomes; conditions: liposome binding signal on yeast proteome chip, Cy3-streptavidin detection
[3] = system: PI(3,4)P2 liposomes; assay: Yeast proteome chip probed with PI(3,4)P2 liposomes; conditions: liposome binding signal on yeast proteome chip, Cy3-streptavidin detection
[4] = system: PI(3)P liposomes; assay: Yeast proteome chip probed with PI(3)P liposomes; conditions: liposome binding signal on yeast proteome chip, Cy3-streptavidin detection
[5] = system: PI(4,5)P2 liposomes; assay: Yeast proteome chip probed with PI(4,5)P2 liposomes; conditions: liposome binding signal on yeast proteome chip, Cy3-streptavidin detection
[6] = system: PI(4)P liposomes; assay: Yeast proteome chip probed with PI(4)P liposomes; conditions: liposome binding signal on yeast proteome chip, Cy3-streptavidin detection
[7] = system: phospholipids (phosphatidylinositols vs phosphatidylcholine); assay: Proteome chip lipid-binding screen, overall analysis of six liposomes (PI/PC specificity); conditions: phospholipid liposome probes
Excerpt: FIGS. 4A-4D. Analysis of the phosphatidylinositol-binding proteins. To determine the phosphatidylinositol (“PI”)-binding specificity of 150 positive proteins, their binding signals were normalized against the corresponding binding signals of phosphatidylcholine (“PC”). Based on the ratios (“PI/PC”), the proteins were grouped into four categories: (A) 30 strong and specific, (B) 43 strong and nonspecific, (C) 19 weak and specific, and (D) 58 weak and nonspecific phosphatidylinositol-binding proteins. The intensity represents the PI/PC signal ratio as shown by the scale in the figure. The column, labeled “10^n” to the right of the PI/PC binding ratios indicates the maximum binding signal intensity (open boxes) and its confidence interval (solid horizontal lines); the numbers indicate the log of the values. Boxes in the three columns to the right of the confidence interval column indicate membrane-associated proteins (“Membrane”), kinases (“Kinase”), and uncharacterized ORFs (“Unknown”), respectively.
To identify PI-binding proteins in yeast, liposomes were used as probes because the liposome provides the most relevant physiological condition to assay the interactors. Six types of liposomes were used. Each contains phosphatidylcholine (“PC”) with 1% (w/w) N-(biotinoyl)-1,2-dihexadecanoyl-sn-glycero-3-phosphoethanolamine, triethylammonium salt (biotin DHPE). The biotinylated lipid serves as a label that can be detected by Cy3-streptavidin (21). In addition to PC, the five other liposomes contain either 5% (w/w) PI(3)P, PI(4)P, PI(3,4)P2, PI(4,5)P2, or PI(3,4,5)P3 (FIG. 3A).
The protein-liposome interaction was assayed as follows. Appropriate amounts of each lipid in chloroform were mixed and dried under nitrogen. The lipid mixture was resuspended in TBS buffer by vortexing. The liposomes were created by sonication. Blocked proteome chips were washed three to five times in PBS buffer, and the extra liquid on the glass surface was removed by tapping the slides vertically on a KIMWIPE™. 200 μl of liposome solution was added to the proteome chip and immediately covered by a hydrophobic plastic cover slip (GRACE BIO-LAB™, USA). After trapped air bubbles were removed, the chip was incubated in a humidity chamber at RT for one hour. To remove the cover slip, the chip was immersed into large volume of PBS buffer (50 ml), so that the slip would float away. The chip was then moved to a second PBS bath (>50 ml) and washed 3×5 min with shaking at RT. After removing extra liquid on the surface of the chip, about 100 μl of Cy3 or Cy5 conjugated streptavidin (PIERCE™, USA; 1:2000 to 1:4000 dilution) was added to the surface and covered by a hydrophobic plastic cover slip (GRACE BIO-LABS™, USA). The chip was incubated for greater than 30 min in the dark at RT. The chip was then washed as described above. To completely remove the liquid on the chip, the chip was spun to dryness at 1500-2000 rpm for 5-10 min at RT.
An algorithm was devised to assist in the identification of positive signals (42). Fifty-two (35%) of the interactors (i.e., lipid-binding proteins) correspond to uncharacterized proteins thus ascribing the first biochemical activities to those proteins.
The interactors (i.e., phospholipid-binding proteins) were grouped in several ways (42). First, the interactors were sorted according to whether they bound lipids strongly or weakly, based on the phospholipid-binding signal relative to the amount of GST (FIG. 4). Slightly more (72%) of the strong lipid binding proteins (FIGS. 4A and 4B) were characterized relative to the weakly binding proteins (54%) (FIGS. 4C and 4D). Many of the strong lipid-binding proteins are membrane-associated, or are predicted to be associated with membranes, whereas fewer of the weaker binding proteins appear to be associated with membranes (FIG. 4, “Membrane” column). […] Moreover, thirteen of the seventeen protein kinases bind very strongly to the phospholipids. […]

[8] = target: T1, calmodulin (Homo sapiens, UniProt P0DP23); assay: Yeast proteome chip probed with biotinylated calmodulin; assay type: binding; conditions: biotinylated calmodulin in the presence of calcium
T1 construct: purchased CalBiochem, USA
Excerpt: To test for protein-protein interactions, the yeast proteome was probed with calmodulin (11). Calmodulin is a highly conserved calcium-binding protein involved in many calcium-regulated cellular processes and has many known physical partners (Hook et al., 2001, Annu. Rev. Pharmacol. Toxicol. 41:471). The calmodulin probe was biotinylated, and bound probe was detected using Cy3-labeled streptavidin. As a control, the yeast proteome was probed with Cy3-labeled streptavidin alone.
Generally, protein-protein interactions can be assayed as follows. Blocked proteome chips are washed three to five times in PBS buffer, and the extra liquid on the glass surface is removed by tapping the slides vertically on a KIMWIPE™. 200 ∞l of biotinylated protein probe is added to the proteome chip and immediately covered by a hydrophobic plastic cover slip (GRACE BIO-LABS™, USA). After trapped air bubbles are removed, the chip is incubated in a humidity chamber at room temperature (RT) for one hour. To remove the cover slip, the chip is immersed into large volume of PBS buffer (>50 ml), and the slip should float away. The chip is then moved to a second PBS bath (>50 ml) and washed 3×5 min with shaking at RT. After removing extra liquid on the surface of the chip, at least 150 μl of Cy3- or Cy5-conjugated streptavidin (PIERCE™, USA; 1:2000 to 1:4000 dilution) is added to the surface and covered by a hydrophobic plastic cover slip (GRACE BIO-LABS™, USA). The chip is incubated for greater than 30 min in the dark at RT. The chip is then washed as described above. To completely remove the liquid on the chip, the chip is spun to dryness at 1500-2000 rpm for 5-10 min at RT.
• 1. S. Fields, Y. Kohara, D. J. Lockhart, Proc. Natl. Acad. Sci. 96, 8825 (1999); A. Goffeau et al., Science 274, 563 (1996). • 2 P. Ross-Macdonald et al., Nature 402, 413 (1999); J. L., DeRisi, V. R. Iyer, P. O. Brown, Science 278, 680 (1997); E. A. Winzeler et al., Science 285, 901 (1999). P. Uetz et al., Nature 403, 623 (2000); T. Ito et al., Proc. Natl. Acad. Sci. USA. 97, 1143 (2000) • 3 H. Zhu, M. Snyder, Curr. Opin. Chem. Biol. 5, 40 (2001). • 4 M. R. Martzen et al., Science 286, 1153 (1999). • 5 H. Zhu et al., Nat. Genet. 26, 283 (2000). • 6 G. MacBeath, S. L. Schreiber, Science 289, 1760 (2000). • 7 A. Caveman, J. Cell Sci. 113, 3543 (2000). • 8 P. Arenkov et al., Anal. Biochem 278, 123 (2000). • 9 D. A. Mitchell, T. K. Marshall, R. J. Deschenes, Yeast 9, 715 (1993). The expression vector pEGH was created by inserting an RGS-HisX6 epitope tag between the GST gene and the polycloning site of pEG(KG). The yeast ORFs were cloned using the strategy described previously (5), except every step was done in a 96-well format. Plasmid DNAs confirmed by DNA sequencing were reintroduced into both yeast (Y258) and E. coli (DH5a). […] 0.1 mM calcium was present in buffers in all subsequent steps. The chip was washed three times with PBS at RT. Cy3-conjugated streptavidin (Jackson IR, USA) (1:5000 dilution) was added to the chip and incubated for 30 min at RT. After extensive washing, the chip was spun dry and scanned using a microarray scanner; the data was subsequently acquired with the GENEPIX™ array densitometry software (Axon, USA). • 12 S. S. Hook, A. R. Means, Annu. Rev. […]

Molecule | PC [1] | PI(3, 4, 5)P3 [2] | PI(3, 4)P2 [3] | PI(3)P [4] | PI(4, 5)P2 [5] | PI(4)P [6] | identified as lipid-binding interactor [7] | calmodulin binding [8]
B1 | 1774.37 | 560.70 | 298.26 | 202.00 | 423.73 | 1795.06 | identified | –
B2 | – | – | – | – | – | – | – | identified
B3 | 6.46 | −1.12 | −5.02 | −9.00 | −13.06 | 10.45 | identified | –
